B1: ANKRD40 (parent)
chain: VCCCELGVNPDQVEKIRKLPNTLL

Variants of: B1
Test: protein stability index of a GFP-peptide fusion (GPS, HEK-293T) (PSI 1-6); higher = more stable
Details: c terminus: a fixed tail appended
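Also: lentivirally expressed fusions sorted by FACS into six bins by GFP to DsRed ratio, PSI derived from sequencing read proportions per bin multiplied by bin number.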

Protein stability index: each site, then its substitutions
P20: Y 2.23 | R 1.91 | C 1.38 | G 2.08 | T 2.2 | H 2.55 | V 1.82 | Q 1.87 | M 1.57 | A 1.88 | L 2.02 | I 1.38 | K 1.95 | N 2.3
L23: S 2.25 | R 1.66 | C 1.71 | Y 1.45 | E 3.05 | M 1.89 | V 2.25
C4: E 3 | F 1.83 | S 2.84 | D 3.17 | H 2.27 | Y 1.85 | V 2.74 | W 1.98 | Q 2.72 | K 2.22 | I 2.28
L24: N 2.61 | D 3.15 | M 1.8 | W 2.1 | K 2.09 | G 2.56 | V 1.96 | T 1.94 | F 2.04 | E 2.62 | Y 1.84
E14: S 1.45 | A 2.3 | Q 1.48 | N 1.91 | C 1.71 | W 2.21
D11: E 2.18 | T 1.69 | K 1.89 | L 1.91 | R 2.63 | F 1.49 | W 1.98 | H 1.26 | A 1.79 | I 1.93 | Y 2.55 | V 1.46 | M 2.41
P10: Y 1.31 | C 1.94 | E 2.11 | S 1.89 | A 2.14 | L 2.17 | W 1.88
V8: H 2.17 | I 1.79 | A 1.86 | C 1.86 | W 1.58 | G 2.33 | Y 1.77 | T 1.62 | F 1.3 | D 2.37 | E 2.39
T22: H 1.8 | Q 1.63 | A 2.09 | W 2.01 | I 2.06 | C 1.72 | G 1.51 | F 2.2
R17: T 1.47 | Q 1.62 | D 2.21 | H 2.23 | A 1.81 | W 1.74 | Y 1.92 | K 2.29 | E 2.31 | N 1.67 | C 1.46 | I 3.09 | P 2.15
N21: F 1.95 | C 2.21 | V 1.83 | K 3.13 | A 1.7 | M 1.84 | H 1.83 | R 1.34 | P 1.83 | S 1.9
C2: F 1.9 | I 1.62 | N 2.7 | V 3.24 | Q 3.56 | M 2.4 | E 3.52 | T 2.72 | Y 2.6 | D 3.2 | L 2.04 | S 2.76 | A 2.85
K18: M 1.68 | Y 1.31 | E 2.03 | I 1.43 | P 1.59 | D 2.08
G7: E 2.13 | H 2.45 | Q 2.02 | P 1.76 | C 2.6 | M 1.7 | S 1.72 | T 2.85 | Y 1.88 | F 2.27
E5: S 2.81 | G 1.33 | L 2.28 | Y 2.68
I16: L 1.56 | C 2.22 | G 2.01 | P 2.89 | N 3.14 | D 2.76 | H 1.98 | V 2.38 | W 2.13 | F 1.69 | A 3.14 | K 2.53 | Q 2.32 | T 2.56
L6: E 2.76 | R 2.3 | G 2.87 | V 2.2 | M 2.3 | H 2.15 | T 2.13 | S 2.68 | I 1.8

From the supplement of paper PMC10567573
